Experimental data taken from article PMC7293033 (2020).

Biological target: His-FGF2, LMW FGF2 (residues 135-288, C211S/C229S) (human, UniProt P09038 135-288, C211S | C229S)
Test: SPR

His-FGF2, LMW FGF2 (residues 135-288, C211S/C229S), sequence (P09038 135-288 C211S/C229S): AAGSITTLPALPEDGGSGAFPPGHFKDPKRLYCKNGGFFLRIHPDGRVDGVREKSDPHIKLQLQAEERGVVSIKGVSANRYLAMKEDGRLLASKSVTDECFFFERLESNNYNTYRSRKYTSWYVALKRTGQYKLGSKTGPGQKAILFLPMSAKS

koff: 0.00474 s⁻¹
B1: His-API5 (apoptosis inhibitor 5, residues 1-504, isoform 2), wild type (natural protein)
chain: MPTVEELYRNYGILADATEQVGQHKDAYQVILDGVKGGTKEKRLAAQFIPKFFKHFPELADSAINAQLDLCEDEDVSIRRQAIKELPQFATGENLPRVADILTQLLQTDDSAEFNLVNNALLSIFKMDAKGTLGGLFSQILQGEDIVRERAIKFLSTKLKTLPDEVLTKEVEELILTESKKVLEDVTGEEFVLFMKILSGLKSLQTVSGRQQLVELVAEQADLEQTFNPSDPDCVDRLLQCTRQAVPLFSKNVHSTRFVTYFCEQVLPNLGTLTTPVEGLDIQLEVLKLLAEMSSFCGDMEKLETNLRKLFDKLLEYMPLPPEEAENGENAGNEEPKLQFSYVECLLYSFHQLGRKLPDFLTAKLNAEKLKDFKIRLQYFARGLQVYIRQLRLALQGKTGEALKTEENKIKVVALKITNNINVLIKDLFHIPPSYKSTVTLSWKPVQKVEIGQKRASEDTTSGSPPKKSSAGPKRDARQIYNPPSGKYSSNLGNFNYERSLQGK
